From PMC7864943, “Structural elements in the flexible tail of the co-chaperone p23 coordinate client binding and progression of the Hsp90 chaperone cycle” (Nature Communications, 2021) come the findings set out here.

What all share (conditions): both partners purified
Assay [1] has as its target T1, yeast Hsp90 (Hsp82), full length (yeast, UniProt P02829 1-709).
T1 construct: Hsp90 (Hsp82), yeast, full-length protein; Isotope-labelled (methyl-labelled, deuterated) in some NMR experiments; also called Hsp90 FL; Hsp90 dimer
Briefly: ATPase inhibition assay; apparent Ki; ATP-regenerating system, 30 °C; 3 µM yeast Hsp90 (Hsp82) with rising concentrations of p23 or mutants; 40 mM Hepes, 150 mM KCl, 5 mM MgCl2, 1 mM DTT, pH 7.5; 2 mM ATP.

Assay [2] deals with T1, yeast Hsp90 (Hsp82), full length. Briefly: ITC; 20 µM Hsp90 in the cell, p23^WT (135 µM) or mutants (up to 360 µM) in the syringe; 2 mM AMP-PNP; 40 mM Hepes, 150 mM KCl, 5 mM MgCl2, 1 mM DTT, pH 7.5; 30 °C. In general terms: ITC needs no label: the signal is the heat of the interaction.
Assay [3] has as its target T2, human Hsp90β, full length (human, UniProt P08238 1-724).
T2 construct: also called Hsp90 FL (human); source: E. coli BL-21 DE3, purified (the methods speak of Hsp90 and p23 in general)
Put plainly: NMR titration; 1H-15N HSQC of 15N-labeled p23 with unlabeled full-length Hsp90/AMP-PNP or GR-LBDm alone; peak intensity ratios; 25 mM Tris, 200 mM NaCl, 5 mM DTT, 0.5 mM dexamethasone, pH 7; 30 °C.

T1 sequence (P02829 whole entry): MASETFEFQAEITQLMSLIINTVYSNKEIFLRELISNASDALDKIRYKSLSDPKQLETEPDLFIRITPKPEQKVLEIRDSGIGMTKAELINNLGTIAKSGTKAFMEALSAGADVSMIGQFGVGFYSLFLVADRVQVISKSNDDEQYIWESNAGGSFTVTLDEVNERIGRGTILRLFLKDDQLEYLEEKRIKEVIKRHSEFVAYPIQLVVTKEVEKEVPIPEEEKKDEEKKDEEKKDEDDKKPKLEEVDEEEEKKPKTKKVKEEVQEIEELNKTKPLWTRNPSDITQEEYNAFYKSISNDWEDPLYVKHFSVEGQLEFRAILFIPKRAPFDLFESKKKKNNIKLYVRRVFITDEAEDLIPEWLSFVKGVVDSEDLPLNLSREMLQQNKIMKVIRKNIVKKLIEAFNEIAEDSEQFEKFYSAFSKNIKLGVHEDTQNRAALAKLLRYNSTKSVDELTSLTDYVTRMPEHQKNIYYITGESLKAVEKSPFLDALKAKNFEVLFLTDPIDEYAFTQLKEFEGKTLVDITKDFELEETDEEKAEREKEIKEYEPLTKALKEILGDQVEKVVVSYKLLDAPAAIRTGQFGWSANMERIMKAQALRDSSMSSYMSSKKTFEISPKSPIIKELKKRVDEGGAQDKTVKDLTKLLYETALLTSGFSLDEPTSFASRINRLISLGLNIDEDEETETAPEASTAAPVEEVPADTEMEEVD
T2 sequence (P08238 whole entry): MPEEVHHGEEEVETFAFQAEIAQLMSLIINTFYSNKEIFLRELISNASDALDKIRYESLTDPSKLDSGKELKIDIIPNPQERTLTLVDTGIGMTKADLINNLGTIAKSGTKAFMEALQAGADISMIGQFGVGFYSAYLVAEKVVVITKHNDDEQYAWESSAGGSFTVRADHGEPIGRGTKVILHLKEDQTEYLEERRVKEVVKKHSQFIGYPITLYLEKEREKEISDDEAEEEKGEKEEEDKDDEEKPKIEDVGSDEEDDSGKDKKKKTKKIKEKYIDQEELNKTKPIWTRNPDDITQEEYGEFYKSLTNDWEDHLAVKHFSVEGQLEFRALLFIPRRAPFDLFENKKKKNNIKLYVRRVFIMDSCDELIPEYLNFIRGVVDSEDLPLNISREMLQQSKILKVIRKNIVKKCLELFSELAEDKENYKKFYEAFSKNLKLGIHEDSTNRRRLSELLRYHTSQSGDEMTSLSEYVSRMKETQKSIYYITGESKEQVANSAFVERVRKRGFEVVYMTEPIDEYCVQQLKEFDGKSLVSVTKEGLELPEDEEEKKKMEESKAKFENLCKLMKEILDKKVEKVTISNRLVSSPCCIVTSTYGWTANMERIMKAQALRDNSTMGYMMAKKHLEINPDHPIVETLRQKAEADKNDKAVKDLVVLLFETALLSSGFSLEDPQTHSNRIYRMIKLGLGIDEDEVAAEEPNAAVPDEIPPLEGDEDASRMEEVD

B1: yeast p23^Δ88 (domain or fragment, UniProt P28707 1-128, looked up)
chain: MSDKVINPQVAWAQRSSTTDPERNYVLITVSIADCDAPELTIKPSYIELKAQSKPHVGDENVHHYQLHIDLYKEIIPEKTMHKVANGQHYFLKLYKKDLESEYWPRLTKEKVKYPYIKTDFDKWVDED
notes: p23/Sba1, yeast, C-terminal deletion mutant Δ88; source: E. coli BL-21 DE3, purified
By Kd is commonly meant the free concentration of one partner at which half of the binding sites on the other are occupied at equilibrium, for simple one-to-one binding. In the case of B1, the Ki in assay [1] was 2.2 µM. In assay [2], the equilibrium dissociation constant (Kd) turned out to be 2.3 µM.

B2: yeast p23^Δ91 (domain or fragment, UniProt P28707 1-125, looked up)
chain: MSDKVINPQVAWAQRSSTTDPERNYVLITVSIADCDAPELTIKPSYIELKAQSKPHVGDENVHHYQLHIDLYKEIIPEKTMHKVANGQHYFLKLYKKDLESEYWPRLTKEKVKYPYIKTDFDKWV
notes: p23/Sba1, yeast, C-terminal deletion mutant Δ91; source: E. coli BL-21 DE3, purified
Take B2: the Ki in assay [1] was determined as 10.8 µM.

B3: yeast p23^W124A (natural protein, UniProt P28707 1-216, looked up)
chain: MSDKVINPQVAWAQRSSTTDPERNYVLITVSIADCDAPELTIKPSYIELKAQSKPHVGDENVHHYQLHIDLYKEIIPEKTMHKVANGQHYFLKLYKKDLESEYWPRLTKEKVKYPYIKTDFDKAVDEDEQDEVEAEGNDAAQGMDFSQMMGGAGGAGGAGGMDFSQMMGGAGGAGSPDMAQLQQLLAQSGGNLDMGDFKENDEEDEEEEIEPEVKA
notes: p23/Sba1, yeast, point mutant of the wild type (aa 1-216); source: E. coli BL-21 DE3, purified
As for B3, the Ki in assay [1] was found to be 2.6 µM. The Kd in assay [2] worked out at 1.3 µM.

B4: human p23 (natural protein, UniProt Q15185 1-160, looked up)
chain: MQPASAKWYDRRDYVFIEFCVEDSKDVNVNFEKSKLTFSCLGGSDNFKHLNEIDLFHCIDPNDSKHKRTDRSILCCLRKGESGQSWPRLTKERAKLNWLSVDFNNWKDWEDDSDEDMSNFDRFSEMMNNMGGDEDVDLPEVDGADDDSQDSDDEKMPDLE
notes: p23, human; helical stretch at residues 117-127 of the tail; 15N-labelled; also called p23 (human); source: E. coli BL-21 DE3, purified (the methods speak of Hsp90 and p23 in general)
Take B4: the binding result in assay [3] was “binds”.
